# Laboratory results: patent US9878005B2, “Method of promoting wound healing with hyodxia-induced mitogenic factor” (THE JOHNS HOPKINS UNIVERSITY, priority 2003, dated 2018)
# B1: HIMF: hypoxia-induced mitogenic factor; recombinant C-terminal FLAG-tagged protein of 96 amino acids purified from 293 cell culture medium (protein, UniProt Q9EP95 24-111, looked up)
# Resistin-like alpha: DETIEIIVENKVKELLANPANYPSTVTKTLSCTSVKTMNRWASCPAGMTATGCACGFACGSWEIQSGDTCNCLCLLVDWTTARCCQLS
# modifications: C-terminal FLAG tag
# notes: hypoxia-induced mitogenic factor; recombinant C-terminal FLAG-tagged protein of 96 amino acids purified from 293 cell culture medium
# Key:
# [1] = system: rat pulmonary microvascular smooth muscle cells (RPSM); assay: 3H-thymidine incorporation assay (RPSM proliferation); assay type: cell-based; conditions: for inhibition of serum-induced RPSM proliferation: preliminary experiments
# Text: Cell culture and ^3H-thymidine incorporation assays. Rat pulmonary microvascular smooth muscle cells (RPSM) were isolated from male Sprague-Dawley rats (150-200 g) according to a published method2. Briefly, after the pulmonary artery was flushed with phosphate buffered saline (PBS), it was infused with 2% iron oxide suspension in 0.5% agar. The air spaces were filled with agar, the subpleural margins were harvested and partially collagenase digested, and the microvessels were separated magnetically. The identity of RPSM was confirmed by characteristic appearance on phase-contrast microscopy and indirect immunofluorescent antibody staining for smooth muscle-specific isoforms of […] and myosin heavy chain. RPSM were grown in DMEM/F12 medium supplemented with 10% fetal bovine serum (FBS), 2 mM of glutamine, […] of penicillin and 100 μg/ml of streptomycin. Passage 3 to 5 cells were used in the experiments.
# The cells were seeded in 24-well plates at 5×10^4/well. After synchronization with serum-free DMEM/F12 (supplemented with 1% Bovine serum albumin (BSA)) for 24 to 48 hours, the cells were treated with the specified agents and 0.1 μCi/well (or 1 μCi/well) of 3H-thymidine in the serum-free DMEM/F12 for 48 hours. After the experimental protocol was completed, the cells were rinsed with PBS twice and incubated in 10% TCA for 30 min. The cells were then washed with PBS two more times and lysed in 250 μl of the lysis buffer (1% SDS, 0.8% NaOH). 3H-thymidine incorporation was measured with a Beckman 6500 scintillation counter in 10 ml of scintillation cocktail.
# [2] = system: Akt phosphorylation (PI3K/Akt pathway) in RPSM; assay: Western blot for pAkt and Akt in RPSM; assay type: cell-based, rat; conditions: for inhibition of HIMF-activated Akt phosphorylation: 5 minutes
# Protocol: Western blots. The tissue collection and homogenization were performed as described before^1. HIMF was detected with 1:1000 dilution of the anti-HIMF antibody (raised in rabbit using the peptide CENKVKELLANPANYP (SEQ ID NO: 10) conjugated to keyhole limpet hemocyanin as the antigen) followed by 1:3000 dilution of goat anti-rabbit HRP-labeled antibody (BioRad, Hercules, Calif.). The specificity of the anti-HIMF antibody was preliminarily characterized with peptide competition. The peptide used as the immunogen blocked only the HIMF band and had no effect on the nonspecific bands. For phospho-Akt (pAkt) and Akt blots, RPSM were lysed in CelLytic-M (Sigma, St. Louis, Mo.) supplemented with 1 mM PMSF and 1:100 of protease inhibitor cocktail, phosphatase inhibitor cocktail 1 and 2 (Sigma, St. Louis, Mo.). 18 μg of protein in equal volume was subjected to electrophoresis in 4-20% polyacrylamide gel (BioRad, Hercules, Calif.). After transfer to nitrocellulose membrane, the membrane was first probed with anti-pAkt1/2/3(Thr308)(1:500, (Santa Cruz Biotechnology, Santa Cruz, Calif.). Then it was stripped and reprobed with anti-Akt1/2/3 (1:500, (Santa Cruz Biotechnology, Santa Cruz, Calif.).
# pulmonary vasculature = assay: Intact chest mouse experiment; assay type: in vivo; conditions: intravenous injection
# Protocol: Intact chest mouse experiment. The animals were ventilated with 95% O2/5% CO2 and 2% isoflurane using a custom-designed, constant-flow mouse ventilator with tidal volume set to 6.7 ml/kg at 140 breaths/min. A femoral artery was cannulated for the measurement of systemic arterial pressure, which was measured with a Viggo-Spectramed transducer attached to a polygraph (Grass Instruments, model 7). Heart rate was determined from the systolic pressure pulses with a tachometer (Grass, model 7P44A), and the left jugular vein was cannulated for the administration of drugs. The animals were strapped in the supine position to a fluoroscopic table, and PAP was measured with a specially designed murine pulmonary arterial catheter attached to a pressure transducer (Schneider/Namic). Mean PAP was derived electronically, and pulmonary arterial wedge pressure was determined by recently described procedures^6. Cardiac output was measured by the thermodilution technique by injection of a known volume (20 μl) of 0.9% NaCl solution at 23° C. into the right atrium and measurement of blood temperature changes in the root of the aorta with a cardiac output computer (Cardiotherm 500, Columbus Instruments, Columbus, Ohio) equipped with a small-animal interface. A thermistor microprobe (Columbus Instruments, Fr-1) was inserted into the right carotid artery and advanced to the aortic arch, where changes in aortic blood temperature were measured.
# [3] = system: vascular tube formation in the Matrigel plug; assay: Matrigel plug assay in vivo; parameters: species or system mouse; conditions: HIMF 50 nM final, subcutaneous, 7 days; FLAG control 4.3±0.84; n=3, P<0.001
# Protocol: Matrigel plug assays: 200 μl of Matrigel mixed with FLAG or HIMF (50 nM final) was injected subcutaneously (n=3 for each group) on the back of mice. Mice were sacrificed after 7 days and the Matrigel plugs collected. Following fixation in 4% paraformaldehyde in PBS ([…], pH 7.4), 10 μm frozen sections were cut and stained either with hemotoxylin and eosin (HE) or von Willebrand factor (vWF). For the detection of vWF, anti-human vWF (1:250 dilution, Dako) and anti-rabbit IgG conjugated with FITC (1:500 dilution) were used. The positive cells were counted and expressed as cell numbers per 20× field.
# [4] = system: Akt phosphorylation in L2 cells; assay: Akt phosphorylation in L2 cells (HIMF isolation vs mock isolation); assay type: cell-based
# Protocol: Recombinant HIMF. The C-terminal tagged HIMF was generated by PCR and inserted into pcDNA5/FRT/TO vector using the EcoR V and Xho I restriction sites. The pcDNA5/FRT/TO vector containing the recombinant HIMF gene was then integrated in a Flp recombinase-dependent manner into the genome of the Flp-In™ T-REx™ 293 cell line using the Flp-In™ T-REx™ kit from Invitrogen (Carlsbad, Calif.). Production of recombinant HIMF was induced by tetracycline (1 μg/ml) in the 293 cells maintained in DMEM supplemented with 5% FBS, 2 mM of glutamine, 100 U/ml of penicillin and 100 μg/ml of streptomycin, 100 μg/ml of hygromycin B, and 7.5 μg/ml of blasticidin. HIMF was purified by anti-FLAG M2 antibody agarose (Sigma, St. Louis, Mo.) column chromatography from the 293 cell culture medium with FLAG (0.1 mg/ml) elution. The concentration of the HIMF protein was estimated semi-quantitatively by silver staining after SDS-PAGE using BSA as the standard. […] Therefore, the recombinant protein has 96 amino acids and has a calculated molecular weight of 10,444 Da. […] To exclude the role of possible contaminants such as insulin, a mock isolation control experiment was performed. The medium obtained from the control TREx-293 cell culture was used for the mock isolation. […]
Molecule,inhibition of serum-induced RPSM proliferation [1],"inhibition of HIMF-activated Akt phosphorylation ([2]; inhibitor 20 μmol/L, HIMF 5×10^−8 mol/L)","inhibition of HIMF-activated Akt phosphorylation ([2]; inhibitor 50 μmol/L, HIMF 5×10^−8 mol/L)",pulmonary arterial pressure (PAP) (pulmonary vasculature),pulmonary vascular resistance (PVR) (pulmonary vasculature),"pulmonary vasoconstrictor potency versus endothelin-1, angiotensin II, or serotonin (molar dose-response curves) (pulmonary vasculature)",proliferation of RPSM (3H-thymidine incorporation) ([1]; HIMF 3.3×10^−9 to 3.3×10^−8 mol/L),Akt activation sustained through ([2]; HIMF 5×10^−8 mol/L) [min],activation of phosphorylation of Akt ([2]; HIMF 5×10^−8 mol/L),time of peak Akt activation (phosphorylation) ([2]; HIMF 5×10^−8 mol/L) [min],activation of Akt by the recombinant protein ([2]; preliminary experiments),vascular tube formation in the Matrigel plug [3],"Akt phosphorylation in L2 cells ([4]; HIMF isolation, mock isolation had no effect)","activation of Akt by the recombinant protein ([4]; L2 cells, preliminary experiments)"
"O=c1c(-c2ccc(O)cc2)coc2cc(O)cc(O)c12 [Genistein, reference compound]",inhibit,did not inhibit,–,–,–,–,–,–,–,–,–,–,–,–
"O=C(Nc1cc(C(=O)Nc2ccc(S(=O)(=O)[O-])cc2S(=O)(=O)[O-])cc(C(=O)Nc2ccc(S(=O)(=O)[O-])cc2S(=O)(=O)[O-])c1)Nc1cc(C(=O)Nc2ccc(S(=O)(=O)[O-])cc2S(=O)(=O)[O-])cc(C(=O)Nc2ccc(S(=O)(=O)[O-])cc2S(=O)(=O)[O-])c1.[Na+].[Na+].[Na+].[Na+].[Na+].[Na+].[Na+].[Na+] [NF449, reference compound]",inhibit,–,did not inhibit,–,–,–,–,–,–,–,–,–,–,–
B1,–,–,–,increased,increased,more potent,dose-dependently increased,≥ 60,strongly activated,5,activated,17.7±1.37 /×20 field,stimulated,activated
